From US20070231812A1, “Method of Screening Antidiabetic Agents” (priority 2004, published 2007)

B1: SOCS-2: mouse SOCS-2 (amino acid sequence of SEQ ID NO: 2) overexpressed in pancreatic β cells via adenovirus vector pAdTrack-CMV (protein, listed as Mus sp.)
chain: MTLRCLEPSGNGADRTRSQWGTAGLPEEQSPEAARLAKALRELSQTGWYWGSMTVNEAKEKLKEAPEGTFLIRDSSHSDYLLTISVKTSAGPTNLRIEYQDGKFRLDSIICVKSKLKQFDSVVHLIDYYVQMCKDKRTGPEAPRNGTVHLYLTKPLYTSAPTLQHFCRLAINKCTGTIWGLPLPTRLKDYLEEYKFQV

How the values were obtained:
endogenous SOCS-2 gene = test: Endogenous SOCS-2 mRNA in HepG2 cells by quantitative PCR with or without IL-6; format: cell-based, human; conditions: IL-6 10 ng/mL, 3 hours, compensated with G3PDH, relative to absence of IL-6
Experimental: First, an endogenous SOCS-2 promoter activity was measured. Since a stimulation capable of promoting the SOCS-2 promoter activity in pancreatic β cells was unknown, an amount of SOCS-2 mRNA was measured when stimulated by IL-6, which was a typical stimulation capable of increasing a transcriptional activity of STAT1, STAT3, or STAT5. It is considered that STAT1, STAT3, and STAT5 transduce an external signal, and finally promote a SOCS-2 transcriptional activity. More particularly, human HepG2 cells in which the IL-6 reactivity was confirmed were used to measure and compare amounts of endogenous SOCS-2 mRNA expressed when stimulated with or without IL-6 stimulation. The amount of gene expressed was compensated by measuring an amount of a G3PDH (Glyceraldehyde 3-phosphate dehydrogenase) gene expressed, at the same time. […] In this measuring system, an amount of fluorescence from a SYBR Green I dye incorporated into double-stranded DNAs amplified by PCR was detected and quantified in real time, to determine the amount of gene expressed. […]
The amount of […] SOCS-2 gene expressed was compensated with that of the G3PDH gene expressed in accordance with the following equation: C=A/B [C: Compensated amount of SOCS-2 expressed, A: Measured value of the SOCS-2 gene expressed, and B: Measured value of the G3PDH gene expressed]

SOCS-2 promoter = SOCS-2 promoter reporter (luciferase) activity in HepG2 cells with or without IL-6; format: cell-based, human; conditions: IL-6 stimulation 3 hours, standardized by β-galactosidase activity, relative to absence of IL-6
Experimental: On the basis of the registered sequence (NCBI Reference Sequences No. NM_003877) of human SOCS-2, a genomic sequence which accords with the sequence was specified as the sequence of NCBI GenBank accession No. NC—000012.5—93000001—94000000. To obtain a DNA consisting of nucleotides 893,596-898,678 of NC—000012.5—93000001—94000000, which was considered the promoter region of human SOCS-2, i.e., a DNA consisting of the nucleotide sequence of SEQ ID NO: 3, the first PCR was carried out using synthetic oligo DNAs [5′-gtg[…]-3′ (SEQ ID NO: 8) and 5′-gtg[…]-3′ (SEQ ID NO: 9)] having restriction enzyme sites […] and NheI, respectively, and an LA Taq (TAKARA; catalogue code RR002A). The resulting PCR product was diluted to 1/50 with sterile water, and the second PCR was carried out using the diluted solution as a template, synthetic oligo DNAs [5′-gtg[…]-3′ (SEQ ID NO: 10) and 5′-gtg[…]-3′ (SEQ ID NO: 11)], and an LA Taq (TAKARA; catalogue code RR002A). […]
HepG2 cells (ATCC accession No. HB-8065) was transformed with the SOCS-2 reporter vector or the control vector prepared in Example 3(1) to measure the activity when stimulated with or without IL-6. […] The cells were lysed with a cell lysis solution LCβ (Toyo Ink MFG), and a luciferase activity was measured using a PicaGene coloring kit (Toyo Ink MFG; 309-04321). […]

[1] = tested on: rat pancreatic Langerhans islets; test: Insulin secreted from rat pancreatic Langerhans islets overexpressing SOCS-2; format: cell-based; conditions: 90 minutes, adenovirus infected rat islets
Experimental: After 4 male rats (6-8 weeks old, 350 to 450 g in weight) were anesthetized, the abdomen was incised and exposed. A bile duct of the liver was ligated, and blood was drawn from the heart. From the bile duct, 5 mL of HBSS-HEPES (136.8 mmol/L NaCl, 5.3 mmol/L KCl, 0.8 mmol/L MgSO4, 1 mmol/L Na2HPO4, 0.44 mmol/L KH2PO4, 4.1 mmol/L NaHCO3, 10 mmol/L Hepes, 1 mmol/L CaCl2, and 2 mmol/L glucose, pH 7.2) supplemented with 0.02% Liberase (Roche Diagnostic) was injected using a winged needle. The pancreas was removed and transferred to a tube containing 5 mL of HBSS-HEPE, and incubated at 37° C. for 20 minutes. After the incubation, the whole was stirred, and ice-cold HBSS-HEPES-0.35% BSA was added. The mixture was centrifuged at 1500 rpm for 1 minute to remove the supernatant. To the precipitated tissues, 10 mL of HBSS-HEPES-0.35% BSA was added, and the tissues were suspended using a needle. This washing step was repeated twice. After the centrifugation, the supernatant was removed, and 10 mL of a 8.3% Ficoll-Conray solution was added and suspended. Further, 10 mL of HBSS-HEPES-0.35% BSA was added, and the whole was centrifuged for 20 minutes. After the centrifugation, pancreatic Langerhans islets between two liquid layers were collected. To the collected pancreatic Langerhans islets, 10 mL of HBSS-HEPES-0.35% BSA was added, and the whole was centrifuged. […]

MIN6B1 cells = test: Insulin secreted from MIN6B1 cells overexpressing SOCS-2; format: cell-based, mouse; conditions: 20 minutes, adenovirus infected MIN6B1 cells
Experimental: Mouse pancreatic β cell line MIN6B1 cells [Endocrinol. (2003) 144,. 1368-1379] were infected with SOCS-2/pAdTrack-CMV or pAdTrack-CMV (control) to prepare pancreatic β cells overexpressing SOCS-2, as described below.
MIN6B1 cells (2×10^5 cells) were seeded on a 24-well plate, and cultured for 24 hours in 0.5 mL of a minimum essential medium DMEM (GIBCO) containing 10% fetal bovine serum (SIGMA). SOCS-2/pAdTrack-CMV or pAdTrack-CMV (control) was added to each medium at a concentration of 4×10^8 pfu/well.
After 14 hours from the adenovirus infection of pancreatic β cells, each medium was aspirated, and cells were washed three times with KRB-HEPES (140 mmol/L NaCl, 3.6 mmol/L KCl, 0.5 mmol/L NaH2PO4, 0.5 mmol/L MgSO4, 1.5 mmol/L-CaCl2, 10 mmol/L Hepes, 2 mmol/L NaHCO3, and 0.1% BSA, pH 7.4), and incubated in 2.8 mmol/L glucose-containing KRB-HEPES (1 mL) at 37° C. for 1 hour in the presence of 5% CO2.
After the buffer was aspirated, 2.8 mmol/L or 16.8 mmol/L glucose-containing KRB-HEPES was added. The cells were further incubated at 37° C. for 20 minutes in the presence of 5% CO2, and an amount of insulin secreted into the supernatant was measured.
A commercially available insulin radioimmunoassay kit (Rat insulin [125I] RIA system; Amersham Bioscience) was used for the measurement of the amount of insulin secreted.

[2] = 16.8 mmol/L glucose, p<0.01 vs control

Molecule | expression of the endogenous SOCS-2 gene, factor of increase (endogenous SOCS-2 gene) | SOCS-2 reporter activity, factor of increase (SOCS-2 promoter) | insulin secretion versus control ([1]; 2.8 mmol/L glucose) | insulin secretion versus control [1, 2] | insulin secretion versus control (MIN6B1 cells; 2.8 mmol/L glucose) | insulin secretion versus control (MIN6B1 cells; [2])
IL-6: typical stimulation capable of increasing a transcriptional activity of STAT1, STAT3, or STAT5 (R&D Systems) | approximately 2 | approximately 2 |  |  |  | 
B1 |  |  | no difference was observed | inhibited the activity of promoting insulin secretion | no difference was observed | inhibited the activity of promoting insulin secretion
